The source of these data is patent US20260049138A1 (Chugai, published 2026).

First the molecules themselves.
B1: GLS3000 N30L one-arm antibody (antibody, human IgG1, kappa, L234A L235A, N297A, name in Kabat numbering)
heavy: QVQLVESGGGVVQPGRSLRLSCAASGFTFSNAWMHWVRQAPGKGLEWVAQIKAKSNNYATYYAESVKGRFTISRDDSKNSLYLQMNSLKTEDTAVYYCRYVHYGAYYGVDAWGQGTTVTVSSASTKGPSVFPLAPSSKSTSGGTAALGCLVKDYFPEPVTVSWNSGALTSGVHTFPAVLQSSGLYSLSSVVTVPSSSLGTQTYICNVNHKPSNTKVDKKVEPKSCDKTHTCPPCPAPEAAGGPSVFLFPPKPKDTLMISRTPEVTCVVVDVSHEDPEVKFNWYVDGVEVHNAKTKPREEQYASTYRVVSVLTVLHQDWLNGKEYKCKVSNKALPAPIEKTISKAKGQPREPQVYTLPPSRCELTKNQVSLSCAVKGFYPSDIAVEWESNGQPENNYKTTPPVLDSDGSFFLVSKLTVDKSRWQQGNVFSCSVMHEALHNHYTQKSLSLSPDYKDDDDK
chain: EPKSSDKTHTCPPCPAPELLGGPSVFLFPPKPKDTLMISRTPEVTCVVVDVSHEDPEVKFNWYVDGVEVHNAKTKPREEQYNSTYRVVSVLTVLHQDWLNGKEYKCKVSNKALPAPIEKTISKAKGQPREPQVCTLPPSRDELTKNQVSLWCLVKGFYPSDIAVEWESNGQPENNYKTTPPVLDSDGSFFLYSKLTVDKSRWQQGNVFSCSVMHEALHNRYTQKSLSLSP
light: DIVMTQSPLSLPVTPGEPASISCRSSQSLVHSNRLTYLHWYQQKPGQAPRLLIYKVSNRFSGVPDRFSGSGSGTDFTLKISRVEAEDVGVYYCGQGTQVPYTFGQGTKLEIKRTVAAPSVFIFPPSDEQLKSGTASVVCLLNNFYPREAKVQWKVDNALQSGNSQESVTEQDSKDSTYSLSSTLTLSKADYEKHKVYACEVTHQGLSSPVTKSFNRGEC
B2: GLS3000 N30M one-arm antibody (antibody, human IgG1, kappa, L234A L235A, N297A, name in Kabat numbering)
heavy: QVQLVESGGGVVQPGRSLRLSCAASGFTFSNAWMHWVRQAPGKGLEWVAQIKAKSNNYATYYAESVKGRFTISRDDSKNSLYLQMNSLKTEDTAVYYCRYVHYGAYYGVDAWGQGTTVTVSSASTKGPSVFPLAPSSKSTSGGTAALGCLVKDYFPEPVTVSWNSGALTSGVHTFPAVLQSSGLYSLSSVVTVPSSSLGTQTYICNVNHKPSNTKVDKKVEPKSCDKTHTCPPCPAPEAAGGPSVFLFPPKPKDTLMISRTPEVTCVVVDVSHEDPEVKFNWYVDGVEVHNAKTKPREEQYASTYRVVSVLTVLHQDWLNGKEYKCKVSNKALPAPIEKTISKAKGQPREPQVYTLPPSRCELTKNQVSLSCAVKGFYPSDIAVEWESNGQPENNYKTTPPVLDSDGSFFLVSKLTVDKSRWQQGNVFSCSVMHEALHNHYTQKSLSLSPDYKDDDDK
chain: EPKSSDKTHTCPPCPAPELLGGPSVFLFPPKPKDTLMISRTPEVTCVVVDVSHEDPEVKFNWYVDGVEVHNAKTKPREEQYNSTYRVVSVLTVLHQDWLNGKEYKCKVSNKALPAPIEKTISKAKGQPREPQVCTLPPSRDELTKNQVSLWCLVKGFYPSDIAVEWESNGQPENNYKTTPPVLDSDGSFFLYSKLTVDKSRWQQGNVFSCSVMHEALHNRYTQKSLSLSP
light: DIVMTQSPLSLPVTPGEPASISCRSSQSLVHSNRMTYLHWYQQKPGQAPRLLIYKVSNRFSGVPDRFSGSGSGTDFTLKISRVEAEDVGVYYCGQGTQVPYTFGQGTKLEIKRTVAAPSVFIFPPSDEQLKSGTASVVCLLNNFYPREAKVQWKVDNALQSGNSQESVTEQDSKDSTYSLSSTLTLSKADYEKHKVYACEVTHQGLSSPVTKSFNRGEC
B3: GLS3000 N30R one-arm antibody (antibody, human IgG1, kappa, L234A L235A, N297A, name in Kabat numbering)
heavy: QVQLVESGGGVVQPGRSLRLSCAASGFTFSNAWMHWVRQAPGKGLEWVAQIKAKSNNYATYYAESVKGRFTISRDDSKNSLYLQMNSLKTEDTAVYYCRYVHYGAYYGVDAWGQGTTVTVSSASTKGPSVFPLAPSSKSTSGGTAALGCLVKDYFPEPVTVSWNSGALTSGVHTFPAVLQSSGLYSLSSVVTVPSSSLGTQTYICNVNHKPSNTKVDKKVEPKSCDKTHTCPPCPAPEAAGGPSVFLFPPKPKDTLMISRTPEVTCVVVDVSHEDPEVKFNWYVDGVEVHNAKTKPREEQYASTYRVVSVLTVLHQDWLNGKEYKCKVSNKALPAPIEKTISKAKGQPREPQVYTLPPSRCELTKNQVSLSCAVKGFYPSDIAVEWESNGQPENNYKTTPPVLDSDGSFFLVSKLTVDKSRWQQGNVFSCSVMHEALHNHYTQKSLSLSPDYKDDDDK
chain: EPKSSDKTHTCPPCPAPELLGGPSVFLFPPKPKDTLMISRTPEVTCVVVDVSHEDPEVKFNWYVDGVEVHNAKTKPREEQYNSTYRVVSVLTVLHQDWLNGKEYKCKVSNKALPAPIEKTISKAKGQPREPQVCTLPPSRDELTKNQVSLWCLVKGFYPSDIAVEWESNGQPENNYKTTPPVLDSDGSFFLYSKLTVDKSRWQQGNVFSCSVMHEALHNRYTQKSLSLSP
light: DIVMTQSPLSLPVTPGEPASISCRSSQSLVHSNRRTYLHWYQQKPGQAPRLLIYKVSNRFSGVPDRFSGSGSGTDFTLKISRVEAEDVGVYYCGQGTQVPYTFGQGTKLEIKRTVAAPSVFIFPPSDEQLKSGTASVVCLLNNFYPREAKVQWKVDNALQSGNSQESVTEQDSKDSTYSLSSTLTLSKADYEKHKVYACEVTHQGLSSPVTKSFNRGEC
B4: GLS3000 N30Q one-arm antibody (antibody, human IgG1, kappa, L234A L235A, N297A, name in Kabat numbering)
heavy: QVQLVESGGGVVQPGRSLRLSCAASGFTFSNAWMHWVRQAPGKGLEWVAQIKAKSNNYATYYAESVKGRFTISRDDSKNSLYLQMNSLKTEDTAVYYCRYVHYGAYYGVDAWGQGTTVTVSSASTKGPSVFPLAPSSKSTSGGTAALGCLVKDYFPEPVTVSWNSGALTSGVHTFPAVLQSSGLYSLSSVVTVPSSSLGTQTYICNVNHKPSNTKVDKKVEPKSCDKTHTCPPCPAPEAAGGPSVFLFPPKPKDTLMISRTPEVTCVVVDVSHEDPEVKFNWYVDGVEVHNAKTKPREEQYASTYRVVSVLTVLHQDWLNGKEYKCKVSNKALPAPIEKTISKAKGQPREPQVYTLPPSRCELTKNQVSLSCAVKGFYPSDIAVEWESNGQPENNYKTTPPVLDSDGSFFLVSKLTVDKSRWQQGNVFSCSVMHEALHNHYTQKSLSLSPDYKDDDDK
chain: EPKSSDKTHTCPPCPAPELLGGPSVFLFPPKPKDTLMISRTPEVTCVVVDVSHEDPEVKFNWYVDGVEVHNAKTKPREEQYNSTYRVVSVLTVLHQDWLNGKEYKCKVSNKALPAPIEKTISKAKGQPREPQVCTLPPSRDELTKNQVSLWCLVKGFYPSDIAVEWESNGQPENNYKTTPPVLDSDGSFFLYSKLTVDKSRWQQGNVFSCSVMHEALHNRYTQKSLSLSP
light: DIVMTQSPLSLPVTPGEPASISCRSSQSLVHSNRQTYLHWYQQKPGQAPRLLIYKVSNRFSGVPDRFSGSGSGTDFTLKISRVEAEDVGVYYCGQGTQVPYTFGQGTKLEIKRTVAAPSVFIFPPSDEQLKSGTASVVCLLNNFYPREAKVQWKVDNALQSGNSQESVTEQDSKDSTYSLSSTLTLSKADYEKHKVYACEVTHQGLSSPVTKSFNRGEC
B5: GLS3000 N30P one-arm antibody (antibody, human IgG1, kappa, L234A L235A, N297A, name in Kabat numbering)
heavy: QVQLVESGGGVVQPGRSLRLSCAASGFTFSNAWMHWVRQAPGKGLEWVAQIKAKSNNYATYYAESVKGRFTISRDDSKNSLYLQMNSLKTEDTAVYYCRYVHYGAYYGVDAWGQGTTVTVSSASTKGPSVFPLAPSSKSTSGGTAALGCLVKDYFPEPVTVSWNSGALTSGVHTFPAVLQSSGLYSLSSVVTVPSSSLGTQTYICNVNHKPSNTKVDKKVEPKSCDKTHTCPPCPAPEAAGGPSVFLFPPKPKDTLMISRTPEVTCVVVDVSHEDPEVKFNWYVDGVEVHNAKTKPREEQYASTYRVVSVLTVLHQDWLNGKEYKCKVSNKALPAPIEKTISKAKGQPREPQVYTLPPSRCELTKNQVSLSCAVKGFYPSDIAVEWESNGQPENNYKTTPPVLDSDGSFFLVSKLTVDKSRWQQGNVFSCSVMHEALHNHYTQKSLSLSPDYKDDDDK
chain: EPKSSDKTHTCPPCPAPELLGGPSVFLFPPKPKDTLMISRTPEVTCVVVDVSHEDPEVKFNWYVDGVEVHNAKTKPREEQYNSTYRVVSVLTVLHQDWLNGKEYKCKVSNKALPAPIEKTISKAKGQPREPQVCTLPPSRDELTKNQVSLWCLVKGFYPSDIAVEWESNGQPENNYKTTPPVLDSDGSFFLYSKLTVDKSRWQQGNVFSCSVMHEALHNRYTQKSLSLSP
light: DIVMTQSPLSLPVTPGEPASISCRSSQSLVHSNRPTYLHWYQQKPGQAPRLLIYKVSNRFSGVPDRFSGSGSGTDFTLKISRVEAEDVGVYYCGQGTQVPYTFGQGTKLEIKRTVAAPSVFIFPPSDEQLKSGTASVVCLLNNFYPREAKVQWKVDNALQSGNSQESVTEQDSKDSTYSLSSTLTLSKADYEKHKVYACEVTHQGLSSPVTKSFNRGEC
B6: GLS3000 N30S one-arm antibody (antibody, human IgG1, kappa, L234A L235A, N297A, name in Kabat numbering)
heavy: QVQLVESGGGVVQPGRSLRLSCAASGFTFSNAWMHWVRQAPGKGLEWVAQIKAKSNNYATYYAESVKGRFTISRDDSKNSLYLQMNSLKTEDTAVYYCRYVHYGAYYGVDAWGQGTTVTVSSASTKGPSVFPLAPSSKSTSGGTAALGCLVKDYFPEPVTVSWNSGALTSGVHTFPAVLQSSGLYSLSSVVTVPSSSLGTQTYICNVNHKPSNTKVDKKVEPKSCDKTHTCPPCPAPEAAGGPSVFLFPPKPKDTLMISRTPEVTCVVVDVSHEDPEVKFNWYVDGVEVHNAKTKPREEQYASTYRVVSVLTVLHQDWLNGKEYKCKVSNKALPAPIEKTISKAKGQPREPQVYTLPPSRCELTKNQVSLSCAVKGFYPSDIAVEWESNGQPENNYKTTPPVLDSDGSFFLVSKLTVDKSRWQQGNVFSCSVMHEALHNHYTQKSLSLSPDYKDDDDK
chain: EPKSSDKTHTCPPCPAPELLGGPSVFLFPPKPKDTLMISRTPEVTCVVVDVSHEDPEVKFNWYVDGVEVHNAKTKPREEQYNSTYRVVSVLTVLHQDWLNGKEYKCKVSNKALPAPIEKTISKAKGQPREPQVCTLPPSRDELTKNQVSLWCLVKGFYPSDIAVEWESNGQPENNYKTTPPVLDSDGSFFLYSKLTVDKSRWQQGNVFSCSVMHEALHNRYTQKSLSLSP
light: DIVMTQSPLSLPVTPGEPASISCRSSQSLVHSNRSTYLHWYQQKPGQAPRLLIYKVSNRFSGVPDRFSGSGSGTDFTLKISRVEAEDVGVYYCGQGTQVPYTFGQGTKLEIKRTVAAPSVFIFPPSDEQLKSGTASVVCLLNNFYPREAKVQWKVDNALQSGNSQESVTEQDSKDSTYSLSSTLTLSKADYEKHKVYACEVTHQGLSSPVTKSFNRGEC

The target in the assay is T1, CD3ε homodimer protein (human, UniProt P07766 23-126, limits assumed).
T1 construct: also called CD3 (CD3ε)
T1 sequence (P07766 23-126 limits assumed): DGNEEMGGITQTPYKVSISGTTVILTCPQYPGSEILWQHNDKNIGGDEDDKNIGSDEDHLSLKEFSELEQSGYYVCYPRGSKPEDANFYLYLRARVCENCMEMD
The experiment in a line: SPR Biacore T200, CD3ε homodimer on chip.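 Also: Light-chain single-residue variant antibodies injected over amine-coupled CD3ε homodimer on a CM4 chip at 25 °C, bound amount divided by that of the GLS3000-containing antibody.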
On to B1, for which the “ratio of amount bound vs unaltered GLS3000” value (“ratio of amount bound” for short) stood at 0.7.

As for B2, the “ratio of amount bound” value was found to be 0.8. With B3, the “ratio of amount bound” value was 1.86. Take B4: the “ratio of amount bound” value came out at 0.87. In the case of B5, the “ratio of amount bound” value turned out to be 0.31. B6: the “ratio of amount bound” value was determined as 0.29.
